Source: paper PMC3093317 (Molecular Biology of the Cell, 2011)

B1: HA-tagged YadA-MA-S417G, expressed in yeast (domain or fragment)
chain: FHQLDNRLDKLDTRVDKGLASSAALNSLFQPYGVGKVNFTAGVGGYRSSQALAIGSGYRVNESVALKAGVAYAGSSDVMYNAGFNIEW

How the values were obtained:
[1] = target: HA-tagged YadA-MA expressed in E. coli (Yersinia enterocolitica) (UniProt P0C2W0); test: SDS-PAGE of the SDS-stable oligomer with monomerization by boiling in urea
[2] = target: the molecule itself; test: as above

Molecule | stoichiometry N [1] | stoichiometry N [2]
HA-tagged YadA-MA expressed in E. coli (from UniProt P0C2W0 335-422) (domain or fragment) | 3 | 
B1 |  | 3
